This experiment has as its target T1, full-length CD22 (UniProt P20273 20-847, limits assumed).
T1 construct: Re-expressed in OCI-Ly10 cells whose endogenous CD22 was deleted by CRISPR; also called CD22 full length (FL); CD22-full length
T1 sequence (looked up): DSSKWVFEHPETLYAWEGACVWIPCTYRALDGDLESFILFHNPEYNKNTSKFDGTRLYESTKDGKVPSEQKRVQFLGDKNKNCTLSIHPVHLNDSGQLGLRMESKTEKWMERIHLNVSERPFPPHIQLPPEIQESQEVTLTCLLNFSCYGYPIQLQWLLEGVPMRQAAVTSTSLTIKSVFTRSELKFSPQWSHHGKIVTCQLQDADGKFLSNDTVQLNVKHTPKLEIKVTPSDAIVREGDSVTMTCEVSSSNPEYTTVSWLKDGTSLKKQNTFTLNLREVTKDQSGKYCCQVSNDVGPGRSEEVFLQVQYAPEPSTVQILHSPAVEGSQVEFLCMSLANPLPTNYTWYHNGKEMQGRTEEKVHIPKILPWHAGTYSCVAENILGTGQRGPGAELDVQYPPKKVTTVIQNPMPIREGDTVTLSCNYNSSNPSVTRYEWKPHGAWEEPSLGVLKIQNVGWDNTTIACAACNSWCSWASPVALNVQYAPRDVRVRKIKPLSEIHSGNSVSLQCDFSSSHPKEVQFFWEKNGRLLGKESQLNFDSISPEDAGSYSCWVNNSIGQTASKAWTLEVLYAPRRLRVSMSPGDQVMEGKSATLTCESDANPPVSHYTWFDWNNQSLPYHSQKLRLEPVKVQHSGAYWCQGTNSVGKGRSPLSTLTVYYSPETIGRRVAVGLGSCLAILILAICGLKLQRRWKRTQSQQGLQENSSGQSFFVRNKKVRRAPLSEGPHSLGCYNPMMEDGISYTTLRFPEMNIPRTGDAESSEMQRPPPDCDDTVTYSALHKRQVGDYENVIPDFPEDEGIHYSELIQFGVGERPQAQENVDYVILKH
Kind of experiment: OCI-Ly10 cells with endogenous CD22 deleted by CRISPR, reconstituted with full-length CD22; Western blot (FIG. 5B). The text has this: One top event was the increased skipping of exon 5-6 (Δex5-6) in CD22 in B-ALL. The inventors validated the RNA expression of this event in 18 out of 18 primary B-ALL samples with RT-PCR. And using Nanopore-based long read RNA sequencing, they confirmed the Δex5-6 event exists within a larger translatable transcript in B-ALL cell lines and B-ALL patient-derived xenografts (PDX). BALB/C mice were then immunized against a peptide containing the junction site of exon 4 and 7 to generate hybridomas and obtain a monoclonal antibody (mAb) against CD22 Δex5-6. To validate the specificity of the identified mAb, the inventors used CRISPR to delete endogenous CD22 in OCI-Ly10 cells and reconstituted the cells with either CD22 Δex5-6 or full length CD22. […] The inventors also validated that this mAb specifically binds to endogenously expressed CD22 Δex5-6 in multiple B-ALL cell lines and B-ALL patient-derived xenografts (PDX) by immunoprecipitation and Western blot analysis. In next steps, the inventors plan to develop antibody-drug conjugates and chimeric antigen receptors from our mAb for further therapeutic testing.
(A western blot detects proteins with antibodies after separation by electrophoresis.)

B1: Clone 11F11 monoclonal antibody against CD22 Δex5-6 (antibody, V domains shown)
VH: RVQLQQPGADLVRPGASVKLSCKASGYTFTSYWMSWVKQRPGQGLEWIGMIDPSDSEAHYNQMFRDKATLTVDNSSSTAYMVLSSLTSEDSAVYYCSNDFDYWGQGTTLTVSS
VL: not shown
notes: Mouse hybridoma antibody, from BALB/C mice immunized with a peptide containing the exon 4/exon 7 junction; No isotype is stated for the clone; also called the mAb; CD22 Δex5-6 antibody
As for B1, the binding result is given as “no binding”.

These data come from patent publication US20220289841A1 (CHILDREN S HOSPITAL OF PHILADELPHIA, published 2022).
